In paper doi:10.1101/2024.12.18.629124:

What was measured:
Experiment in all cases: SPR
[1] = target: GST-Staufen FL (Drosophila melanogaster) (UniProt P25159)
[2] = target: Staufen dsRBD3-4-L4 (aa 578-951) (Drosophila melanogaster) (UniProt P25159)
[3] = target: Tm1 FL (Drosophila melanogaster)
[4] = target: Tm1 1-335 (Drosophila melanogaster)

Substance | Kd [1] [nM] | Kd [2] [nM] | further results
Tm1 1-335 (domain or fragment) | 386 | 262 | –
Staufen dsRBD3-4-5-C-term (domain or fragment) | – | – | Kd [3]: 152 nM
Staufen dsRBD3-4-L4 (aa 578-951) (from UniProt P25159 578-951) (domain or fragment) | – | – | Kd [4]: 224 nM

More lines, main results first:

Kd [1] [nM] | Kd [2] [nM] | Substance | further results
86.6 | – | Tm1 FL (natural protein) | –
13 | – | Khc-Tm1 complex (from UniProt P17210 1-975) | –
– | 495 | Tm1 1-213 (domain or fragment) | –
– | 1420 | Tm1 1-213 L93Y (domain or fragment) | –
